From the supplement of paper PMC6755084

B1: F1*; the commonest letter at each place (parent)
chain: GAGACCGCAACTGAAAAGTTGTTATCACTTGTCGTAAGACACTTTGGATGGGTTGAAGTTCTGCACGTAGAAGCAAAAGGC

Variants of: B1
Experiment: fraction ligated after 30 min (ligated reads / total reads); higher = more ligase activity
Settings: with F1*sub RNA substrate (template-directed ligation), 42 °C
Description: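 Chip-synthesised pool of F1* ligase ribozyme variants (all single and double substitutions, single, double and triple deletions in the catalytic core and GAA bulge, plus designed variants) was transcribed with T7 and reacted as a pool with excess substrate F1*sub for 30 min at 42 C in 50 mM EPPS pH 8.5, 25 mM MgCl2. Ligated and unligated bands were separated by PAGE, barcoded by RT and deep sequenced; fraction ligated = ligated reads / total reads per variant, relative activity = FL / FL of wild type (0.826). Sequences are the DNA template of the ribozyme.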

Q: Which fraction ligated does the source give for C28T G47T here?
A: 0.3

Q: For T29C T32A, which fraction ligated is on record?
A: 0.804

Q: With T29G T35A as the variant, how does the fraction ligated read?
A: 0.83

Q: For T45A G55C, which fraction ligated is on record?
A: 0.067

Q: Which fraction ligated does the source give for G38A A41T here?
A: 0.793

Q: How did the fraction ligated turn out when T43A G50A was run?
A: 0.267

Q: Which fraction ligated does the source give for T43A G50T here?
A: 0.614

Q: With T25A C42T as the variant, how does the fraction ligated read?
A: 0.785

Q: For T25A T44G, which fraction ligated is on record?
A: 0.117

Q: G38C A56T was tested. Which fraction ligated did it give?
A: 0.813

Q: How did the fraction ligated turn out when G34A G46T was run?
A: 0.778

Q: With T25A A48G as the variant, how does the fraction ligated read?
A: 0.459

Q: G31A A41G was tested. Which fraction ligated did it give?
A: 0.797

Q: C28T G38T was tested. Which fraction ligated did it give?
A: 0.795

Q: Which fraction ligated does the source give for A27G G55C here?
A: 0.554

Q: A24T A27T was tested. Which fraction ligated did it give?
A: 0.712

Q: How did the fraction ligated turn out when T23C T44C was run?
A: 0.8

Q: T25C T30C was tested. Which fraction ligated did it give?
A: 0.751

Q: T32A G46C was tested. Which fraction ligated did it give?
A: 0.778

Q: Which fraction ligated does the source give for A37G T44G here?
A: 0.85

Q: Which fraction ligated does the source give for T43C A48C here?
A: 0.723

Q: How did the fraction ligated turn out when T44C G47A was run?
A: 0.772

Q: With A37T A56T as the variant, how does the fraction ligated read?
A: 0.83

Q: With T23C A36G as the variant, how does the fraction ligated read?
A: 0.817

Q: T32C G46T was tested. Which fraction ligated did it give?
A: 0.729

Q: With T23G C28A as the variant, how does the fraction ligated read?
A: 0.789

Q: With T23C G50C as the variant, how does the fraction ligated read?
A: 0.258

Q: How did the fraction ligated turn out when C26A A57T was run?
A: 0.738

Q: With A24C T29A as the variant, how does the fraction ligated read?
A: 0.747

Q: A27G G46T was tested. Which fraction ligated did it give?
A: 0.796

Q: For A36C G55C, which fraction ligated is on record?
A: 0.787

Q: With C28T A39T as the variant, how does the fraction ligated read?
A: 0.796

Q: Which fraction ligated does the source give for A36G G55T here?
A: 0.809

Q: For T30C A48C, which fraction ligated is on record?
A: 0.757

Q: How did the fraction ligated turn out when A36G T44C was run?
A: 0.85

Q: How did the fraction ligated turn out when A36T G46A was run?
A: 0.818

Q: With A36T G46T as the variant, how does the fraction ligated read?
A: 0.791

Q: For G50C G55C, which fraction ligated is on record?
A: 0.0221

Q: Which fraction ligated does the source give for T25A T49G here?
A: 0.772

Q: Which fraction ligated does the source give for A24G C26T here?
A: 0.728

Q: For T30A A41C, which fraction ligated is on record?
A: 0.797

Q: How did the fraction ligated turn out when C42T T49G was run?
A: 0.782

Q: T43C T49C was tested. Which fraction ligated did it give?
A: 0.427

Q: For T32G T45C, which fraction ligated is on record?
A: 0.346

Q: Which fraction ligated does the source give for T23G C26T here?
A: 0.82

Q: With C26A T49C as the variant, how does the fraction ligated read?
A: 0.0891

Q: Which fraction ligated does the source give for T35C A48T here?
A: 0.792

Q: How did the fraction ligated turn out when A27G A41G was run?
A: 0.791

Q: For C33T G50A, which fraction ligated is on record?
A: 0.603

Q: Which fraction ligated does the source give for A24C G46T here?
A: 0.0441

Q: How did the fraction ligated turn out when T29G T45G was run?
A: 0.267

Q: How did the fraction ligated turn out when T23A C26A was run?
A: 0.318

Q: How did the fraction ligated turn out when T23A C26T was run?
A: 0.794

Q: With T25A A56G as the variant, how does the fraction ligated read?
A: 0.0269

Q: For T35G A56T, which fraction ligated is on record?
A: 0.802

Q: For C33T G38A, which fraction ligated is on record?
A: 0.857

Q: With T29A A41C as the variant, how does the fraction ligated read?
A: 0.801

Q: For T32C T45A, which fraction ligated is on record?
A: 0.726

Q: With G38T C40G as the variant, how does the fraction ligated read?
A: 0.82

Q: For C28A A36G, which fraction ligated is on record?
A: 0.795

Q: C33A A37C was tested. Which fraction ligated did it give?
A: 0.859

Q: For A36G G47T, which fraction ligated is on record?
A: 0.0714

Q: Which fraction ligated does the source give for T23C A24C here?
A: 0.73

Q: Which fraction ligated does the source give for C28T T43A here?
A: 0.803

Q: For T30C G38C, which fraction ligated is on record?
A: 0.78

Q: Which fraction ligated does the source give for T43G T44C here?
A: 0.809

Q: For T25A A36C, which fraction ligated is on record?
A: 0.684

Q: How did the fraction ligated turn out when G31A G46A was run?
A: 0.845

Q: With T23A A27T as the variant, how does the fraction ligated read?
A: 0.794

Q: A36T A41G was tested. Which fraction ligated did it give?
A: 0.794

Q: Which fraction ligated does the source give for T44G A57G here?
A: 0.791

Q: Which fraction ligated does the source give for C28A T32G here?
A: 0.812

Q: Which fraction ligated does the source give for A36C G38A here?
A: 0.846

Q: How did the fraction ligated turn out when T32G T44A was run?
A: 0.807

Q: C42T A56C was tested. Which fraction ligated did it give?
A: 0.797

Q: How did the fraction ligated turn out when A24T A57G was run?
A: 0.729

Q: With C42T A48G as the variant, how does the fraction ligated read?
A: 0.806

Q: How did the fraction ligated turn out when A36G G46C was run?
A: 0.803

Q: How did the fraction ligated turn out when C40G T49C was run?
A: 0.365

Q: Which fraction ligated does the source give for T44G G47C here?
A: 0.0306

Q: Which fraction ligated does the source give for T23C T32A here?
A: 0.821

Q: Which fraction ligated does the source give for A36C T45G here?
A: 0.362

Q: C26T G47A was tested. Which fraction ligated did it give?
A: 0.843

Q: With C40G T44C as the variant, how does the fraction ligated read?
A: 0.775
